Reference: patent US20120316071A1 (published 2012)

Experiments:
[1] = target: T1, Recombinant Human DLL4 (R&D Systems Cat#1506-D4/CF) (human, UniProt Q9NR61 27-524); assay: Multispot ECL (MSD), antigen spotted on plate, Fab 250 nM; blank spot 590
T1 construct: Bought recombinant protein; also called rHuman DLL4; delta-like protein 4

[2] = target: T2, rHuman Notch-1/Fc Chimera, CF (R&D Systems Cat#3647-TK) (human, UniProt P46531 19-526); assay: as above
T2 construct: Bought recombinant protein; Fc part of the bought chimera not given

[3] = target: T3, rHuman IGF-1 sR, CF (R&D Systems Cat#391-GR) (human, UniProt P08069 31-932); assay: as above
T3 construct: Bought recombinant soluble receptor; also called insulin-like growth factor-1 soluble receptor

[4] = target: T4, rHuman Erythropoietin R/Fc Chimera, CF (R&D Systems Cat#963-ER) (human, UniProt P19235 25-250); assay: as above
T4 construct: Bought recombinant protein; also called EPO R/Fc; Epo R; Fc part of the bought chimera not given
T4 sequence (looked up): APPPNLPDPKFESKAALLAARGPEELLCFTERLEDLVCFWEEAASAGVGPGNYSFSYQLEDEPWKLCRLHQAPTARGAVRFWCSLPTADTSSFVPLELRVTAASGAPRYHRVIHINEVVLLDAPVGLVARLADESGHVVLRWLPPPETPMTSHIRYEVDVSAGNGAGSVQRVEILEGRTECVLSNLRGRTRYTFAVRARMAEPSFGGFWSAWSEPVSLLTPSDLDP

[5] = target: T5, rHuman Erythropoietin R/Fc Chimera, CF (R&D Systems Cat#963-ER) (human, UniProt P19235 25-250); assay: MSD multispot ECL, antigen spotted on plate; Fab 0.1275 uM; blank spot 530
T5 construct: Bought recombinant protein; also called EPO R/Fc; Epo R; Fc part of the bought chimera not given
T5 sequence (looked up): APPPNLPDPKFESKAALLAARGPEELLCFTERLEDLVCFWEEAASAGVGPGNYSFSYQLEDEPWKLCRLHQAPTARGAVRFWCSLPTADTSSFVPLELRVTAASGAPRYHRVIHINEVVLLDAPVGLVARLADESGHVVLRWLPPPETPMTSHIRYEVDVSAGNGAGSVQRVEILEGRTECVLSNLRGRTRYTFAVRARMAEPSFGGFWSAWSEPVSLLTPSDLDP

[6] = target: T6, Recombinant Human DLL4 (R&D Systems Cat#1506-D4/CF) (human, UniProt Q9NR61 27-524); assay: as above
T6 construct: Bought recombinant protein; also called delta-like protein 4; rHuman DLL4

[7] = target: T7, rHuman ErbB2/Fc Chimera, CF (R&D Systems Cat#1129-ER) (human, UniProt P04626 23-652); assay: as above
T7 construct: Bought recombinant protein; also called human epidermal growth factor 2 receptor; Fc part of the bought chimera not given

[8] = target: T8, rHuman EGF R/Fc Chimera, CF (R&D Systems Cat#344-ER) (human, UniProt P00533 25-645); assay: as above
T8 construct: Bought recombinant protein; also called epidermal growth factor receptor; Fc part of the bought chimera not given

[9] = target: T9, rHuman HGF R/c-MET/Fc Chimera, CF (R&D Systems Cat#358-MT/CF) (human, UniProt P08581 25-932); assay: as above
T9 construct: Bought recombinant protein; also called HGF R/Fc; hepatocyte growth factor receptor; Fc part of the bought chimera not given

[10] = target: T10, rHuman Notch-1/Fc Chimera, CF (R&D Systems Cat#3647-TK) (human, UniProt P46531 19-526); assay: as above
T10 construct: Bought recombinant protein; Fc part of the bought chimera not given

[11] = target: T11, rHuman CD44/Fc Chimera, CF (R&D Systems Cat#3660-CD) (human, UniProt P16070 21-220); assay: as above
T11 construct: Bought recombinant protein; Fc part of the bought chimera not given

[12] = target: T12, rHuman IGF-1 sR, CF (R&D Systems Cat#391-GR) (human, UniProt P08069 31-932); assay: as above
T12 construct: Bought recombinant soluble receptor; also called insulin-like growth factor-1 soluble receptor

[13] = target: T13, rHuman P-Cadherin/Fc Chimera, CF (R&D Systems Cat#861-PC) (human, UniProt P22223 108-654); assay: as above
T13 construct: Bought recombinant protein; Fc part of the bought chimera not given

[14] = target: T14, rHuman HGF R/c-MET/Fc Chimera, CF (R&D Systems Cat#358-MT/CF) (human, UniProt P08581 25-932); assay: MSD multispot ECL, antigen spotted on plate, Fab 11 nM; blank spot 212
T14 construct: Bought from R&D Systems; also called HGF R/Fc; hepatocyte growth factor receptor (HGF R/c-Met); not shown: Fc of the bought chimera

[15] = target: T15, rHuman Notch-1/Fc Chimera, CF (R&D Systems Cat#3647-TK) (human, UniProt P46531 19-526); assay: as above
T15 construct: Bought from R&D Systems; not shown: Fc of the bought chimera

[16] = target: T16, rHuman CD44/Fc Chimera, CF (R&D Systems Cat#3660-CD) (human, UniProt P16070 21-220); assay: as above
T16 construct: Bought from R&D Systems; not shown: Fc of the bought chimera

[17] = target: T17, rHuman IGF-1 sR, (IGF-1 sR), CF (R&D Systems Cat#391-GR) (human, UniProt P08069 31-932); assay: as above
T17 construct: Bought from R&D Systems and called a soluble receptor; also called insulin-like growth factor-1 soluble receptor

[18] = target: T18, rHuman P-Cadherin/Fc Chimera, CF (R&D Systems Cat#861-PC) (human, UniProt P22223 108-654); assay: as above
T18 construct: Bought from R&D Systems; not shown: Fc of the bought chimera

[19] = target: T19, rHuman Erythropoietin R/Fc Chimera, CF (R&D Systems Cat#963-ER) (human, UniProt P19235 25-250); assay: as above
T19 construct: Bought from R&D Systems; also called EPO R/Fc; Epo R/Fc chimera; not shown: Fc of the bought chimera
T19 sequence (looked up): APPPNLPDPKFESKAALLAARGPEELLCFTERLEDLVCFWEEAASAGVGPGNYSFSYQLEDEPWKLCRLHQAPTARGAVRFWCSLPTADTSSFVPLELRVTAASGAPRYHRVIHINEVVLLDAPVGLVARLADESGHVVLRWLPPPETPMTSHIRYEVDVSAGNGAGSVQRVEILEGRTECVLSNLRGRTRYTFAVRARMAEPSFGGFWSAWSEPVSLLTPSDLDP

B1: Fab VH1-46_IGHD6-13*01_IGHJ4*01 & B3_IGKJ1*01 (Fab, V domains shown)
VH: QVQLVQSGAEVKKPGASVKVSCKASGYTFTSYYMHWVRQAPGQGLEWMGIINPSGGSTSYAQKFQGRVTMTRDTSTSTVYMELSSLRSEDTAVYYCAREGYSSSWYDYFDYWGQGTLVTVSS
VL: not shown
notes: Germline Fab made in E. coli; VH was cloned into Plasmid A (CH1, His6 and Flag tags) and the kappa VL into Plasmid C (kappa CL)
For B1, the ECL signal [1] was 1560, the ECL signal [2] was 1240 and the ECL signal [3] was 993. The ECL signal [4] was 8540.

B2: Fab VH4-34_IGHD7-27*01_IGHJ4*01 & L5_IGKJ1*01 (Fab, V domains shown)
VH: QVQLQQWGAGLLKPSETLSLTCAVYGGSFSGYYWSWIRQPPGKGLEWIGEINHSGSTNYNPSLKSRVTISVDTSKNQFSLKLSSVTAADTAVYYCARANWGDYFDYWGQGTLVTVSS
VL: DIQMTQSPSSVSASVGDRVTITCRASQGISSWLAWYQQKPGKAPKLLIYAASSLQSGVPSRFSGSGSGTDFTLTISSLQPEDFATYYCQQANSFPPWTFGQGTKVEIKR
notes: Germline library Fab expressed in E. coli; VH was cloned into Plasmid A, which adds CH1 with His6 and Flag tags
Binder B2 has an ECL signal [5] of 1070, an ECL signal [6] of 2380 and an ECL signal [7] of 857. For the same binder, the ECL signal [8] was 1060, the ECL signal [9] was 853 and the ECL signal [10] was 1500. The ECL signal [11] was 926, the ECL signal [12] was 1040 and the ECL signal [13] was 957.

B3: Fab VH1-46_IGHD3-10*01_IGHJ4*01 & B3_IGKJ1*01 (Fab, V domains shown)
VH: QVQLVQSGAEVKKPGASVKVSCKASGYTFTSYYMHWVRQAPGQGLEWMGIINPSGGSTSYAQKFQGRVTMTRDTSTSTVYMELSSLRSEDTAVYYCAREYYYGSGSYYNDYFDYWGQGTLVTVSS
VL: not shown
notes: Tested as a Fab made in E. coli; VH was cloned into Plasmid A (CH1 constant region, His6 and Flag tags); The kappa VL was cloned into Plasmid C (kappa CL)
Work on B3 yielded an ECL signal [14] of 268, an ECL signal [15] of 404 and an ECL signal [16] of 296. The ECL signal [17] was 289, the ECL signal [18] was 270 and the ECL signal [19] was 1820.
